Measurements reported in PMC3900104.

Molecular target: endogenous Miro1 of COS7 cells (monkey (endogenous in COS7))
Test: co-IP; COS7 cells co-transfected with FLAG-TRAK1 plus Myc-DISC1 or Myc-DISC1-37W, or empty vectors; IP with Miro1 antibody (endogenous Miro1); for quantification IP buffer with 0.1% SDS

Sequence of endogenous Miro1 of COS7 cells (monkey (endogenous in COS7)) (Q8IXI2 whole entry): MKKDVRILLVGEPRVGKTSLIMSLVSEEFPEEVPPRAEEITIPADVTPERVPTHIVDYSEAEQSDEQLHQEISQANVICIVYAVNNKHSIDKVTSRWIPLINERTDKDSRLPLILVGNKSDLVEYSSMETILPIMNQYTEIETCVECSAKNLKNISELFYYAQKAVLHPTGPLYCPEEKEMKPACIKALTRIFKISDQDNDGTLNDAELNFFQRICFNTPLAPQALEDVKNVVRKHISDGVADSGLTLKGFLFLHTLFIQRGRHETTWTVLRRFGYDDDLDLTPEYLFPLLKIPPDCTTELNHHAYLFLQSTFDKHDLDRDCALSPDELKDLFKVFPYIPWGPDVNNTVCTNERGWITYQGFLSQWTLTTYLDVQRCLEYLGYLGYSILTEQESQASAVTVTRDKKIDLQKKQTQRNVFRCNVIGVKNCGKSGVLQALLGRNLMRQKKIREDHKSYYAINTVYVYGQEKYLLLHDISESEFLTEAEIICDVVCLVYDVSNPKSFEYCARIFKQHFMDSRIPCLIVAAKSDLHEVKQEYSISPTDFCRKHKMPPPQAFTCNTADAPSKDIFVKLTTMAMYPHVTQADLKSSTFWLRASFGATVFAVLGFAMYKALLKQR

B1: FLAG-tagged TRAK1 (trafficking-protein-Kinesin-binding-1), aa 2-953, in COS7 (natural protein)
chain: ALVFQFGQPVRAQPLPGLCHGKLIRTNACDVCNSTDLPEVEIISLLEEQLPHYKLRADTIYGYDHDDWLHTPLISPDANIDLTTEQIEETLKYFLLCAERVGQMTKTYNDIDAVTRLLEEKERDLELAARIGQSLLKKNKTLTERNELLEEQVEHIREEVSQLRHELSMKDELLQFYTSAAEESEPESVCSTPLKRNESSSSVQNYFHLDSLQKKLKDLEEENVVLRSEASQLKTETITYEEKEQQLVNDCVKELRDANVQIASISEELAKKTEDAARQQEEITHLLSQIVDLQKKAKACAVENEELVQHLGAAKDAQRQLTAELRELEDKYAECMEMLHEAQEELKNLRNKTMPNTTSRRYHSLGLFPMDSLAAEIEGTMRKELQLEEAESPDITHQKRVFETVRNINQVVKQRSLTPSPMNIPGSNQSSAMNSLLSSCVSTPRSSFYGSDIGNVVLDNKTNSIILETEAADLGNDERSKKPGTPGTPGSHDLETALRRLSLRRENYLSERRFFEEEQERKLQELAEKGELRSGSLTPTESIMSLGTHSRFSEFTGFSGMSFSSRSYLPEKLQIVKPLEGSATLHHWQQLAQPHLGGILDPRPGVVTKGFRTLDVDLDEVYCLNDFEEDDTGDHISLPRLATSTPVQHPETSAHHPGKCMSQTNSTFTFTTCRILHPSDELTRVTPSLNSAPTPACGSTSHLKSTPVATPCTPRRLSLAESFTNTRESTTTMSTSLGLVWLLKERGISAAVYDPQSWDRAGRGSLLHSYTPKMAVIPSTPPNSPMQTPTSSPPSFEFKCTSPPYDNFLASKPASSILREVREKNVRSSESQTDVSVSNLNLVDKVRRFGVAKVVNSGRAHVPTLTEEQGPLLCGPPGPAPALVPRGLVPEGLPLRCPTVTSAIGGLQLNSGIRRNRSFPTMVGSSMQMKAPVTLTSGILMGAKLSKQTSLR
  decrease of co-IP in cells expressing Myc-DISC1-37W against cells expressing Myc-DISC1: 20%
